From article PMC3324464, “The GPI Anchor Signal Sequence Dictates the Folding and Functionality of the Als5 Adhesin from Candida albicans” (PLoS ONE, 2012) come the findings set out here.

Entries after “also recorded” stand apart in the source; their conditions may differ.

For one test, the system named is Candida SC5314 cells. Description: Competition of anti-Als5 antibody binding to Candida cell surface, flow cytometry. Format: cell-based, Candida albicans. The note with it: TRITC secondary antibody, 37 °C 1 hour, mean of 3 independent experiments in duplicates. The procedure:
The production of the antibodies was outsourced (Merck India Ltd.). Polyclonal antibodies were generated in rabbit against the protein band obtained after an SDS-PAGE run of GST- Als5-SS. The antibodies detected both GST-Als5 as well as GST-Als5-SS on a Western Blot. The specificity of the generated anti-Als5 antibody was checked by detecting its ability to bind to the Candida cell surface adhesins. For staining, Candida SC5314 cells (a kind gift from Prof. Rajendra Prasad, SLS, JNU) were grown in synthetic dextrose minimal medium at 30°C to an OD600nm of 0.5. 500 µl of the cells were taken in an eppendorf and washed with PBS. […] The cells were then washed thrice with PBS, and the presence of the TRITC labelled secondary Ab on the Candida cells was detected using flow cytometry. To rule out the non-specific interaction of the secondary Ab with the proteins on Candida cell surface, unstained cells were also detected by flow cytometer. […]
In order to confirm the identity of the Als5 protein, we also designed the following experiment. […] Using a TRITC labelled secondary antibody, we detected the bound primary antibodies on the Candida cells by flow cytometry. […]
Figure 2 GST-Als5 specifically blocks binding of anti-Als5 antibody on Candida cell surface. […] This primary antibody was detected by a secondary antibody that was conjugated with TRITC and detected using flow cytometry as described in the text. […]
For orientation: In flow cytometry, cells or beads pass a laser one at a time.

For another test, the system named is human collagen type IV. Description: Adhesion assay to immobilised collagen type IV. In kind it is binding. The note with it: 0.09 mg/ml protein, 37°C 1 hour, anti-GST/HRP, TMB OD650nm; mean of 3 independent experiments in duplicates. As to the method: Freshly purified GST-Als5 and GST-Als5-SS were checked for their ability to bind to human collagen type IV, following a slightly modified method to that reported. Briefly, a 96-well flat bottom plate was coated with different amounts of collagen type IV and incubated overnight at 4°C. The plate was then washed thrice with PBS and twice with elution buffer. […] The wells were blocked for 1 hour with 5% skimmed milk in PBS and then washed 5 times with wash buffer (1% skimmed milk, 0.025% Tween-20 in PBS). Thereafter, 200 µl/well of primary anti-GST antibody (diluted 1∶1,000) was added. After incubation at 37°C for 1 hour, the wells were washed five times with wash buffer and incubated at 37°C with HRP-conjugated secondary antibody (200 µl/well; diluted 1∶20,000) for 1 hour. The wells were rinsed five times with wash buffer, 100 µl of freshly prepared tetramethylbenzidine solution was added to each well and incubated at 37°C for 1 hour. OD650nm was monitored on a plate reader (Spectramax M2). […]
Figure 3 Adhesion of Als5 to collagen type IV involves recognition of carbohydrate residues on collagen type IV but is not solely determined by it. […] Adhesion of the proteins to collagen type IV was correlated to the absorbance at 650 nm observed by the oxidation of TMB, the substrate of HRP. […] Adherence to collagen type IV was detected as already described. […]

B1: GST-Als5: GST fusion of full length Als5 minus the GPI anchor attachment signal sequence, expressed in E. coli (protein)
chain: ITGIFNSIDSLTWSNAGNYAFKGPGYPTWNAVLGWSLDGTSANPGDTFILNMPCVFKFTASQKSVDLTADGVKYATCQFYSGEEFTTFSSLKCTVNNNLRSSIKALGTVTLPIAFNVGGTGSSVDLEDSKCFTAGTNTVTFNDGSKKLSIAVNFEKSTVDQSGYLTTSRFMPSLNKIATLYVAPQCENGYTSGTMGFSTSYGDVAIDCSNVHIGISKGVNDWNHPVTSESFSYTKSCSSFGISITYQNVPAGYRPFIDAYISPSDNNQYQLSYKNDYTCVDDYWQHAPFTLKWTGYKNSDAGSNGIVIVATTRTVTDSTTAVTTLPFNPSVDKTKTIEILQPIPTTTITTSYVGVTTSYSTKTAPIGETATVIVDVPYHTTTTVTSEWTGTITTTTTRTNPTDSIDTVVVQVPLPNPTTTTTQFWSESFTSTTTITNSLKGTDSVIVREPHNPTVTTTEFWSESYATTETITNGPEGTDSVIVREPHNPTVTTTEFWSESYATTETVTNKPEGTDSVIIKEPHNPTVTTTEFWSESYATTETITTGPLGTDSIVIHDPLEESSSTTAIESSDSNISSSAQESSSSVEQSSSIVGLSSSSDIPLSSDMPSSSSTGLTSSESSTVSSYDSDSSSSSELSTFSSSESYSSSISDTTNFWDSSSSDLESTSITWSSSIDAQSSQSVQSVSNSISTSQETTSSSGEESNTSVTDILVSSDASSILNSDISSYYPSSTISLSDDFPHTIAGEPDSRSSSSIASTVEISSDLVSLTSDPTSSFDSSSSLNSDSSSSPFSDESDISASSSFSTLVAPSFSLSSSSSLSLTYPHYVNSTTYHASESESSSVASPSMASESANDDTHTLSESTDTTSSIGTDSSTVTFCRRDNGDGCIVTGMPSSSIDSEQTSDVTTTSSFVASSTPTSAEQSITDNPNIDSSQTSASSSTKSSVSVSDTVVNSISLSETSTLSSDDSTSSDTSISSTTNSDTGNINAGSSHTSTASIKESSIQKTGVMLSSSYLSTKLSSTSDITTELITTELITTELTTIEDNEPNTFTSTPSSHSEIFSSDNSVLSKQVDRESTIKTSPTTDVTTVSSLSVHSTEASTATLGENSFSNVASTPSNIATSLRSTSSSSNHATESSGTVKSEASAEAIPSPPTSTDNRLSYSTEEAKGITYANSGSTNNLITESQVAAPTDSTSVLIENPVVTSTFDDNSSAAVDQPSKTKSIEESIMNPDSTNETNNGFIATLSQAQVPNSLIHSESISTTMAKTTDASINGDSAASNSQPTTLIQQVATSSYNQPLITTYAGSSS
modifications: left off: GST, N-terminal, kept
As for B1, in the test on Candida SC5314 cells, the “inhibition of anti-Als5 antibody binding to Candida cells (in words)” value is on record as “could inhibit the interaction of the primary antibodies to the cell surface in a concentration dependent manner; also recorded: inhibited the binding of anti-Als5 antibody to C.albicans cell surface in a concentration dependent manner”. Further, the “adhesion to collagen type IV (in words)” value in the test with human collagen type IV is on record as “greater adherence to collagen type IV as compared to GST-Als5-SS”.
